Experiment [1] deals with T1, human CD3e/d protein (Sinobiological, CAT: CT038-H2508H-B) (human, UniProt P07766 23-126; P04234 22-105).
T1 construct: Bought reagent; also called hCD3e/d
Nature of the experiment: ELISA, coated hCD3e/d. On the procedure: (§1) Human CD3e/g protein, cynomolgus monkey CD3e/g protein (sequences shown in Table 1) or human CD3e/d protein was diluted with PBS to a final concentration of 5.0 μg/mL, and then added with 100 μl per well to a 96-well ELISA plate. The plate was sealed with plastic film and incubated overnight at 4° C. The plate was washed twice with plate washing solution [PBS+0.01% (v/v) Tween 20] on the next day, and was added with blocking solution [PBS+0.01% (v/v) Tween 20+1% (w/w) BSA] to block at room temperature for 2 hours. The blocking solution was poured off, and 100 μl per well of the purified CD3e/g antibody obtained in Example 2 was added. After incubation at 37° C. for 2 hours, the plate was washed 3 times with plate washing solution [PBS+0.01% (v/v) Tween20]. After adding HRP (horseradish peroxidase) labeled secondary antibody (purchased from Sigma), the plate was incubated at 37° C. for 2 hours, washed 3 times with plate washing solution [PBS+0.01% (v/v) Tween 20]. After adding 100 μl per well of TMB substrate and incubating at room temperature for 30 minutes, 100 μl per well of stop solution (1.0N HCl) was added. […] FIG. 2 and Table 3 show the binding activities of CD3e/g antibodies to hCD3e/g as detected by ELISA, and FIG. 3 and Table 4 show the binding activities of CD3e/g antibodies to cyno CD3e/g as detected by ELISA, wherein the IgG control is mouse IgG, and the data in the tables are OD_{450 nm} values. Among them, HIT3a was purchased from BD pharmigen with a catalog number 555336; SP34 was purchased from BD pharmigen with a catalog number 551916. OKT3 was purchased from Biolegend.

Experiment [2] deals with T2, Cynomolgus monkey CD3e/g protein (cynomolgus monkey).
T2 construct: also called cyno CD3e/g; cCD3e/g
Nature of the experiment: ELISA, coated cyno CD3e/g. On the procedure: as §1

Experiment [3] deals with T3, human CD3e/g antigen (ACRO, catalog number CDG-H52W5) (human, UniProt P07766 23-126; P09693 23-116).
T3 construct: Bought reagent used as the Biacore analyte; also called hCD3e/g
As to the kind of experiment: SPR (Biacore 8K), antibody captured via anti-human Fc. On the procedure: The equilibrium dissociation constant of binding of CD3 antibodies to human CD3e/g antigen (purchased from ACRO, catalog number CDG-H52W5) was determined by kinetic binding method using Biacore 8K (GE) system. Through the capture method, the carboxylated dextran surface of CM5 chip was first activated with NHS (N-hydroxysuccinimide) and EDC (1-(3-dimethylaminopropyl)-3-ethylcarbodiimide hydrochloride), and then added with an anti-human IgG (Fc) antibody, the free amino group of which could form an amide bond with the activated carboxyl group, thereby being fixed on the chip surface. The anti-human IgG (Fc) antibody could bind to the Fc end of CD3 antibodies to capture the antibodies, and then a series of concentrations of antigen were added to obtain the binding and dissociation curves of antibody and antigen, and the corresponding kinetic constants were calculated by Biacore Evaluation software, as shown in the table below.

B1: mAb001 (antibody, V domains shown)
VH: QVQLQQSGPELVKPGASVKISCKASGYSFTNYYMHWVKQRPGQGLEWIGWTYPGNNNIKYNEKFKGKATLTADTSSSTAYMQLSSLTSEDSAVYYCARDGYGYYFFDYWGQGIILTVSS
VL: DIVMSQSPSSLAVSAGEKVTMSCKSSQSLLNNRTRKNYLAWYQQKPGQSPKLLIYWASTRESGVPDRFTGSGSGTDFTLTISSVQAEDLAIYYCKQSYTLRTFGGGTKLAIK
notes: Mouse hybridoma antibody; The variable regions are printed as CAb001 VH/VL
What is called EC50 is the concentration that produces a half-maximal response. As for B1, in experiment [1], the EC50 was determined as 0.022 nM, the “Emax (OD)” value is 3.05 OD, the “OD450 nm at 0.00128 nM” value is 0.27 OD450 nm and the “OD450 nm at 0.0064 nM” value came to 0.72 OD450 nm. In experiment [1], the “OD450 nm at 0.032 nM” value amounted to 1.83 OD450 nm, the “OD450 nm at 0.16 nM” value worked out at 2.72 OD450 nm, the “OD450 nm at 0.8 nM” value was 2.96 OD450 nm and the “OD450 nm at 4 nM” value stood at 2.99 OD450 nm. For the same molecule, in experiment [1], the “OD450 nm at 20 nM” value was determined as 3.05 OD450 nm and the “OD450 nm at 100 nM” value worked out at 3.02 OD450 nm. Further, in experiment [2], a half-maximal effect (EC50) was put at 0.33 nM, the “OD450 nm at 0.000853 nM” value stood at 0.164 OD450 nm, the “OD450 nm at 0.0043 nM” value amounted to 0.152 OD450 nm and the “OD450 nm at 0.02 nM” value was 0.17 OD450 nm. In addition, in experiment [2], the “OD450 nm at 0.11 nM” value was 0.64 OD450 nm, the “OD450 nm at 0.53 nM” value came to 2.43 OD450 nm, the “OD450 nm at 2.67 nM” value was 3.45 OD450 nm and the “OD450 nm at 13.3 nM” value was determined as 3.5 OD450 nm. The “OD450 nm at 66.7 nM” value in experiment [2] stood at 3.49 OD450 nm.

B2: hAb007-22 (antibody, V domains shown)
VH: QVQLVQSGAEVKKPGASVKVSCKASGSTFTDNYIHWVRQAPGQRLEWIGWIYPGSVNIKYNEKFKDRVTITADTSASTAYMELSSLRSEDTAVYYCARDISRYYFDYWGQGTTVTVSS
VL: DIVMTQSPDSLAVSLGERATINCKSSQSLLNSRTRKNYLAWYQQKPGQPPKLLIYWASTRESGVPDRFTGSGSGTDFTLTISSLQAEDVAVYYCKQSFILRTFGGGTKLEIK
notes: Humanized; constant regions not specified
One may read the Kd as a measure of binding affinity in units of concentration. As usually defined, the koff is the first-order rate constant of dissociation. What is called kon is the rate constant with which the complex forms. In experiment [3], B2 displayed a Kd of 13.3 nM, a koff of 0.00594 s⁻¹ and a kon of 446000 M⁻¹ s⁻¹.

B3: hAb007-28 (antibody, V domains shown)
VH: QVQLVQSGAEVKKPGASVKVSCKASGSTFTDNYIHWVRQAPGQRLEWIGWIYPGSVNIKYNEKFKDRATITADTSASTAYMELSSLRSEDTAVYYCARDISRYYFDYWGQGTTVTVSS
VL: DIVMTQSPDSLAVSLGERATMNCKSSQSLLNSRTRKNYLAWYQQKPGQPPKLLIYWASTRESGVPDRFTGSGSGTDFTLTISSLQAEDVAVYYCKQSFILRTFGGGTKLEIK
notes: as for B2
With B3, in experiment [3], binding was put at a Kd of 11.8 nM, the koff stood at 0.00494 s⁻¹ and the kon came to 420000 M⁻¹ s⁻¹.

B4: hAb007-30 (antibody, V domains shown)
VH: QVQLVQSGAEVKKPGASVKVSCKASGSTFTDNYIHWVKQAPGQRLEWIGWIYPGSVNIKYNEKFKDRATITADTSATTAYMELSSLRSEDTAVYYCARDISRYYFDYWGQGTTVTVSS
VL: DIVMTQSPDSLAVSLGERATINCKSSQSLLNSRTRKNYLAWYQQKPGQPPKLLIYWASTRESGVPDRFTGSGSGTDFTLTISSLQAEDVAVYYCKQSFILRTFGGGTKLEIK
notes: as for B2
In experiment [3], B4 had a Kd of 7.11 nM, a koff of 0.00316 s⁻¹ and a kon of 445000 M⁻¹ s⁻¹.

B5: hAb007-32 (antibody, V domains shown)
VH: QVQLVQSGAEVKKPGASVKVSCKASGSTFTDNYIHWVKQAPGQRLEWIGWIYPGSVNIKYNEKFKDRATITADTSATTAYMELSSLRSEDTAVYYCARDISRYYFDYWGQGTTVTVSS
VL: DIVMTQSPDSLAVSLGERATMNCKSSQSLLNSRTRKNYLAWYQQKPGQPPKLLIYWASTRESGVPDRFTGSGSGTDFTLTISSLQAEDVAVYYCKQSFILRTFGGGTKLEIK
notes: as for B2
Turning to B5, in experiment [3], the Kd turned out to be 7.62 nM, the koff amounted to 0.0032 s⁻¹ and the kon stood at 419000 M⁻¹ s⁻¹.

B6: hAb007-26 (antibody, V domains shown)
VH: QVQLVQSGAEVKKPGASVKVSCKASGSTFTDNYIHWVRQAPGQRLEWIGWIYPGSVNIKYNEKFKDRATITADTSASTAYMELSSLRSEDTAVYYCARDISRYYFDYWGQGTTVTVSS
VL: DIVMTQSPDSLAVSLGERATINCKSSQSLLNSRTRKNYLAWYQQKPGQPPKLLIYWASTRESGVPDRFTGSGSGTDFTLTISSLQAEDVAVYYCKQSFILRTFGGGTKLEIK
notes: as for B2
Turning to B6, in experiment [3], the Kd was 12 nM, the koff amounted to 0.00565 s⁻¹ and the kon is 470000 M⁻¹ s⁻¹.

B7: hAb007-29 (antibody, V domains shown)
VH: QVQLVQSGAEVKKPGASVKVSCKASGSTFTDNYIHWVKQAPGQRLEWIGWIYPGSVNIKYNEKFKDRATITADTSATTAYMELSSLRSEDTAVYYCARDISRYYFDYWGQGTTVTVSS
VL: DIVMTQSPDSLAVSLGERATINCKSSQSLLNSRTRKNYLAWYQQKPGQPPKLLIYWASTRESGVPDRFSGSGSGTDFTLTISSLQAEDVAVYYCKQSFILRTFGGGTKLEIK
notes: as for B2
In experiment [3], B7 returned a Kd of 9.85 nM, a koff of 0.00415 s⁻¹ and a kon of 421000 M⁻¹ s⁻¹.

B8: hAb007-31 (antibody, V domains shown)
VH: QVQLVQSGAEVKKPGASVKVSCKASGSTFTDNYIHWVKQAPGQRLEWIGWIYPGSVNIKYNEKFKDRATITADTSATTAYMELSSLRSEDTAVYYCARDISRYYFDYWGQGTTVTVSS
VL: DIVMTQSPDSLAVSLGERATMNCKSSQSLLNSRTRKNYLAWYQQKPGQPPKLLIYWASTRESGVPDRFSGSGSGTDFTLTISSLQAEDVAVYYCKQSFILRTFGGGTKLEIK
notes: as for B2
For the molecule B8, in experiment [3], the Kd was found to be 5.26 nM, the koff amounted to 0.00225 s⁻¹ and the kon was found to be 427000 M⁻¹ s⁻¹.

B9: hAb007-23 (antibody, V domains shown)
VH: QVQLVQSGAEVKKPGASVKVSCKASGSTFTDNYIHWVRQAPGQRLEWIGWIYPGSVNIKYNEKFKDRVTITADTSASTAYMELSSLRSEDTAVYYCARDISRYYFDYWGQGTTVTVSS
VL: DIVMTQSPDSLAVSLGERATMNCKSSQSLLNSRTRKNYLAWYQQKPGQPPKLLIYWASTRESGVPDRFSGSGSGTDFTLTISSLQAEDVAVYYCKQSFILRTFGGGTKLEIK
notes: as for B2
Take B9: in experiment [3], binding was characterised by a dissociation constant (Kd) of 6.59 nM, the koff amounted to 0.0029 s⁻¹ and the kon was determined as 439000 M⁻¹ s⁻¹.

B10: hAb007-24 (antibody, V domains shown)
VH: QVQLVQSGAEVKKPGASVKVSCKASGSTFTDNYIHWVRQAPGQRLEWIGWIYPGSVNIKYNEKFKDRVTITADTSASTAYMELSSLRSEDTAVYYCARDISRYYFDYWGQGTTVTVSS
VL: DIVMTQSPDSLAVSLGERATMNCKSSQSLLNSRTRKNYLAWYQQKPGQPPKLLIYWASTRESGVPDRFTGSGSGTDFTLTISSLQAEDVAVYYCKQSFILRTFGGGTKLEIK
notes: as for B2
In experiment [3], B10 registered a Kd of 6.16 nM, a koff of 0.00258 s⁻¹ and an association rate constant (kon) of 419000 M⁻¹ s⁻¹.

B11: hAb007-25 (antibody, V domains shown)
VH: QVQLVQSGAEVKKPGASVKVSCKASGSTFTDNYIHWVRQAPGQRLEWIGWIYPGSVNIKYNEKFKDRATITADTSASTAYMELSSLRSEDTAVYYCARDISRYYFDYWGQGTTVTVSS
VL: DIVMTQSPDSLAVSLGERATINCKSSQSLLNSRTRKNYLAWYQQKPGQPPKLLIYWASTRESGVPDRFSGSGSGTDFTLTISSLQAEDVAVYYCKQSFILRTFGGGTKLEIK
notes: as for B2
B11: in experiment [3], binding was put at a Kd of 9.24 nM, the koff amounted to 0.0043 s⁻¹ and the kon is 465000 M⁻¹ s⁻¹.

B12: hAb007-27 (antibody, V domains shown)
VH: QVQLVQSGAEVKKPGASVKVSCKASGSTFTDNYIHWVRQAPGQRLEWIGWIYPGSVNIKYNEKFKDRATITADTSASTAYMELSSLRSEDTAVYYCARDISRYYFDYWGQGTTVTVSS
VL: DIVMTQSPDSLAVSLGERATMNCKSSQSLLNSRTRKNYLAWYQQKPGQPPKLLIYWASTRESGVPDRFSGSGSGTDFTLTISSLQAEDVAVYYCKQSFILRTFGGGTKLEIK
notes: as for B2
For B12, in experiment [3], the Kd is 10 nM, the koff is 0.00427 s⁻¹ and the kon was found to be 427000 M⁻¹ s⁻¹.

Source of the values: patent US20250346668A1 (GENOR BIOPHARMA, published 2025).
